From US20160279215A1, “NOVEL PEPTIDES AND COMBINATION OF PEPTIDES FOR USE IN IMMUNOTHERAPY AGAINST VARIOUS TUMORS” (immatics biotechnologies GmbH, priority 2015, published 2016)

target: T1, HLA-A*02:01 (human); test: UV ligand-exchange ELISA (anti-b2m); ++ = exchange yield >=20%
T1 construct: MHC monomers captured on streptavidin plates; the UV-sensitive peptide is cleaved and exchanged with the test peptide; also called peptide-receptive MHC molecules; MHC class I
Description: Candidate peptides for T cell based therapies according to the present invention were further tested for their MHC binding capacity (affinity). The individual peptide-MHC complexes were produced by UV-ligand exchange, where a UV-sensitive peptide is cleaved upon UV-irradiation, and exchanged with the peptide of interest as analyzed. Only peptide candidates that can effectively bind and stabilize the peptide-receptive MHC molecules prevent dissociation of the MHC complexes. To determine the yield of the exchange reaction, an ELISA was performed based on the detection of the light chain (β2m) of stabilized MHC complexes. The assay was performed as generally described in Rodenko et al. (Rodenko et al., 2006).
96 well MAXISorp plates (NUNC) were coated over night with 2 ug/ml streptavidin in PBS at room temperature, washed 4× and blocked for 1 h at 37° C. in 2% BSA containing blocking buffer. Refolded HLA-A*02:01/MLA-001 monomers served as standards, covering the range of 15-500 ng/ml. Peptide-MHC monomers of the UV-exchange reaction were diluted 100 fold in blocking buffer. Samples were incubated for 1 h at 37° C., washed four times, incubated with 2 ug/ml HRP conjugated anti-β2m for 1 h at 37° C., washed again and detected with TMB solution that is stopped with […]. Absorption was measured at 450 nm. Candidate peptides that show a high exchange yield (preferably higher than 50%, most preferred higher than 75%) are generally preferred for a generation and production of antibodies or fragments thereof, and/or T cell receptors or fragments thereof, as they show sufficient avidity to the MHC molecules and prevent dissociation of the MHC complexes.

Binder	peptide exchange yield
QIADIVTSV	20 to 50%
FLFVDPELV	20 to 50%
ALGDKFLLRV	20 to 50%
SLMEKNQSL	20 to 50%
ALSTVTPRI	20 to 50%
SVADLAHVL	20 to 50%
GLAEFQENV	20 to 50%
LLLLDVPTA	20 to 50%
MTLSEIHAV	20 to 50%
ALLEEEEGV (also called MAGEA4-003)	20 to 50%
YLYELEHAL	20 to 50%
LLTGVFAQL	20 to 50%
IMLNSVEEI	20 to 50%
TLYQGLPAEV	20 to 50%
ALVEKGEFAL	20 to 50%
ALDSTIAHL	20 to 50%
HLNNDRNPL	20 to 50%
GVVPTIQKV (also called GWPTIQKV)	20 to 50%
SILKEDPFL	20 to 50%
NLLIDDKGTIKL	20 to 50%
ILTNKVVSV	20 to 50%
KVFELDLVTL	20 to 50%
VLGEEQEGV	20 to 50%
SLLNQPKAV	20 to 50%
QLVQRVASV	20 to 50%
HLQEKLQSL	20 to 50%
ALYSGDLHAA	20 to 50%
TLLPSSGLVTL	20 to 50%
VQSGLRILL	20 to 50%
KLLEEVQLL	20 to 50%
